Molecular target: CD40 (from R&D systems) (UniProt P25942)
Sequence of UniProt P25942 (P25942 21-193 limits assumed): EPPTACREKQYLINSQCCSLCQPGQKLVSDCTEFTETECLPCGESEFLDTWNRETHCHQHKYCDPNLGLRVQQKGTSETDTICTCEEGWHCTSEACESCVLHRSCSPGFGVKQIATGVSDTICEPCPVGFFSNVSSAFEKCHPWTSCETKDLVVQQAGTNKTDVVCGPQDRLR

In the case of “toxic shock syndrome toxin-1 (TSST-1), native / wild-type (from UniProt P06886 41-234) (other; other documents disagree on this pair)”, the Kd is reported as 2700 nM.

From US9789176
